Laboratory results taken from patent publication US20150037339A1 (Regeneron, published 2015).

How the values were obtained:
Activin AB [1] = target: T1, Activin AB (human, UniProt P08476 311-426; P09529 293-407); experiment: SPR (Biacore), mAb captured on anti-Fc, Activin AB injected, 37 C
T1 construct: Heterodimer of one betaA and one betaB subunit; bought (R&D Systems #1006-AB-005 / #1066-AB)
T1 chain 1: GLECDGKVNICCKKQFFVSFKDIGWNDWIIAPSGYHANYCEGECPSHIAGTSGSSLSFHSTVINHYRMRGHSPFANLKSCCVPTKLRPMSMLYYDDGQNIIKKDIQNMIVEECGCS
T1 chain 2: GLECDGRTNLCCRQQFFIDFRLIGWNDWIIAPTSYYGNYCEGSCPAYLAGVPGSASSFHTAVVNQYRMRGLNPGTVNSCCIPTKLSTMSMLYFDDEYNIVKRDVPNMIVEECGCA
Method in brief: (§1)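 Reported half-lives follow ln2/(60*kd) in minutes, with KD taken as kd/ka. Both rest on fits to binding data from 240 s of association and 600 s of buffer dissociation.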

Activin AB [2] = target: T1, Activin AB; experiment: SPR (Biacore), mAb captured on anti-Fc, Activin AB injected, 25 C
Method in brief: as §1

Activin AC [3] = target: T2, Activin AC (human, UniProt P55103 237-352); experiment: SPR (Biacore), mAb captured on anti-Fc, Activin AC injected, 37 C
T2 construct: Heterodimer of one betaA and one betaC subunit; bought (R&D Systems #4879-AC)
T2 sequence 1: T1 chain 1
T2 sequence 2: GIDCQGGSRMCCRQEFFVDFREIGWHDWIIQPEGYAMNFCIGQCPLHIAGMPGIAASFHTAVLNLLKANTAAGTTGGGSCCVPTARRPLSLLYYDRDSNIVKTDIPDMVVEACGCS
Method in brief: as §1

Activin AC [4] = target: T2, Activin AC; experiment: SPR (Biacore 4000), captured on anti-human Fc, 200 nM ligand injected, 37 C
Description: (§2) For the binding experiment, a Biacore 4000 instrument was used. […] All Biacore binding studies were performed in HBS-T running buffer (0.01 M HEPES pH 7.4, 0.5 M NaCl, 3 mM EDTA, 0.5 mg/ml bovine serum albumin, 0.05% v/v Surfactant P20). […] All binding measurements were performed at 37° C. […] Over the captured antibody surface was injected the TGF-beta family ligands through concentrations ranging from 3.1 nM to 200 nM.

hBMP10 = target: T3, hBMP10 (human, UniProt O95393 317-424); experiment: as above
T3 construct: Bought protein
T3 sequence (looked up): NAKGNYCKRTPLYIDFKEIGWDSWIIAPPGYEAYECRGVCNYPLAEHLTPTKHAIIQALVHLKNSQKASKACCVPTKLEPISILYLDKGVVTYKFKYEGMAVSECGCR
Description: as §2

hBMP6 = target: T4, hBMP6 (human, UniProt P22004 382-513, limits assumed); experiment: as above
T4 construct: Bought protein
T4 sequence (looked up): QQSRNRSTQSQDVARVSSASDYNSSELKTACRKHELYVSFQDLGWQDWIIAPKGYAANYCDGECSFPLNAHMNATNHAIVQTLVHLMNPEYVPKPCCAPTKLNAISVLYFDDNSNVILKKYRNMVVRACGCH
Description: as §2

hBMP4 = target: T5, hBMP4 (human, UniProt P12644 293-408); experiment: as above
T5 construct: Bought protein
T5 sequence (looked up): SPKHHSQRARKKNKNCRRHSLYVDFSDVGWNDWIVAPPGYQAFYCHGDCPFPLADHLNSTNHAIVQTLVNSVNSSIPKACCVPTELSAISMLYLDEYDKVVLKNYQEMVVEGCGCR
Description: as §2

Activin AB [5] = target: T1, Activin AB; experiment: as above
Description: as §2

hBMP9 = target: T6, hBMP9 (human, UniProt Q9UK05 320-429); experiment: as above
T6 construct: Bought protein
T6 sequence (looked up): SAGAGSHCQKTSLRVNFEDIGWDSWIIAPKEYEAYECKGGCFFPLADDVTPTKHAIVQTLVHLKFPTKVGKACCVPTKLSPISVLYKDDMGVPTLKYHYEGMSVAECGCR
Description: as §2

Activin B [6] = target: T7, Activin B (human, UniProt P09529 293-407); experiment: as above
T7 construct: Homodimer of two betaB subunits; bought (R&D Systems #659-AB)
T7 chain: T1 chain 2
Description: as §2

Activin A [7] = target: T8, Activin A (human, UniProt P08476 311-426); experiment: as above
T8 construct: Homodimer of two betaA subunits; bought (R&D Systems #338-AC); also called inhibin-betaA dimer
T8 sequence: T1 chain 1
Description: as §2

GDF8 = target: T9, GDF8 (human, UniProt O14793 267-375); experiment: as above
T9 construct: Bought (R&D Systems #788-G8); also called hGDF8; growth and differentiation factor-8
Description: as §2

hBMP2 = target: T10, hBMP2 (human, UniProt P12643 283-396); experiment: as above
T10 construct: Bought protein; also called BPM2
Description: as §2

GDF11 = target: T11, GDF11 (human, UniProt O95390 299-407); experiment: as above
T11 construct: Bought protein; also called hGDF11
Description: as §2

Activin AC [8] = target: T2, Activin AC; experiment: cell-based or functional assay
Activin AB [9] = target: T1, Activin AB; experiment: cell-based or functional assay
Activin B [10] = target: T7, Activin B; experiment: cell-based or functional assay
Activin A [11] = target: T8, Activin A; experiment: cell-based or functional assay
Activin AC [12] = target: T2, Activin AC; experiment: SPR (Biacore), mAb captured on anti-Fc, Activin AC injected, 25 C
Method in brief: as §1

T11 sequence (O95390 299-407 limits assumed): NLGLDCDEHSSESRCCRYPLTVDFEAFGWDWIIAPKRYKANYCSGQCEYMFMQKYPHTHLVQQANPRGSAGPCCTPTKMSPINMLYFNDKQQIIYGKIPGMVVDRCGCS
T10 sequence (P12643 283-396 limits assumed): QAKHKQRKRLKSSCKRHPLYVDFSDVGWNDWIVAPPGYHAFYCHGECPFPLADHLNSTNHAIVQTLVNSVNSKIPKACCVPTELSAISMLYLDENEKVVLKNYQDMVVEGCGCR

B1: H4H10429P (antibody, human IgG4, V domains shown)
VH: QVQLVESGGGVVQPGRSLRLSCVASGFTVSSYGIHWVRQAPGKGLEWVSVIWYDGRNKDYADSVKGRFTISRDNSKNTVYLEMKGLRAEDTALYYCARDKTGDFDSWGQGTLVTVSS
VL: DIQMTQSPSSLSASVGDRVTITCRASQNINSFLSWYQQKPGKAPKFLIYDASSIQSGAPSRFSGSGSGTDFTLTISSLQPEDFATYYCQQSYSSPFTFGQGTKLEIK
50 nM Ag Bound (RU) (Activin AB [1]): 50 RU | Kd (Activin AB [1]): 0.0755 nM | koff (Activin AB [1]): 0.000488 s⁻¹ | kon (Activin AB [1]): 6.47e+06 M⁻¹ s⁻¹ | t1/2 (Activin AB [1]): 0.393 h | 50 nM Ag Bound (RU) (Activin AB [2]): 40 RU | Kd (Activin AB [2]): 0.0228 nM | koff (Activin AB [2]): 0.000103 s⁻¹ | kon (Activin AB [2]): 4.53e+06 M⁻¹ s⁻¹ | t1/2 (Activin AB [2]): 1.86 h | 50 nM Ag Bound (RU) (Activin AC [3]): 35.7 RU | Kd (Activin AC [3]): 0.462 nM | koff (Activin AC [3]): 0.00062 s⁻¹ | kon (Activin AC [3]): 1.34e+06 M⁻¹ s⁻¹ | t1/2 (Activin AC [3]): 0.31 h | binding response (resonance units) for 200 nM ligand (Activin AC [4]): 43.1 RU | binding response (resonance units) for 200 nM ligand (hBMP10): 32.4 RU | binding response (resonance units) for 200 nM ligand (hBMP6): 4.6 RU | binding response (resonance units) for 200 nM ligand (hBMP4): 1.1 RU | binding response (resonance units) for 200 nM ligand (Activin AB [5]): 76.5 RU | binding response (resonance units) for 200 nM ligand (hBMP9): 33.4 RU | binding response (resonance units) for 200 nM ligand (Activin B [6]): 51.5 RU | binding response (resonance units) for 200 nM ligand (Activin A [7]): 56.8 RU | binding response (resonance units) for 200 nM ligand (GDF8): -0.4 RU | binding response (resonance units) for 200 nM ligand (hBMP2): 3.6 RU | binding response (resonance units) for 200 nM ligand (GDF11): 1.6 RU | IC50 [M], inhibition of 4 nM Activin AC in A204/CAGAx12-Luc Smad2/3-luciferase bioassay (Activin AC [8]): 5.8e-10 M | IC50 [M], inhibition of 30 pM Activin AB in A204/CAGAx12-Luc Smad2/3-luciferase bioassay (Activin AB [9]): 2.9e-10 M | IC50 [M], inhibition of 50 pM Activin B in A204/CAGAx12-Luc Smad2/3-luciferase bioassay (Activin B [10]): 7.9e-08 M | IC50 [M], inhibition of 100 pM Activin A in A204/CAGAx12-Luc Smad2/3-luciferase bioassay (Activin A [11]): 1.6e-10 M | 50 nM Ag Bound (RU) (Activin AC [12]): 28 RU | Kd (Activin AC [12]): 0.0997 nM | koff (Activin AC [12]): 9.1e-05 s⁻¹ | kon (Activin AC [12]): 913000 M⁻¹ s⁻¹ | t1/2 (Activin AC [12]): 2.12 h
